According to patent US20240228986A1, “ENGINEERED CELLS, ENZYMES, AND METHODS FOR PRODUCING CANNABINOIDS” (priority 2021, published 2024):

Key:
Format in all cases: cell-based, Yarrowia
[1] = tested on: olivetolic acid; assay: Unfused rMPTs and APTs, CBGA/FCBGA formation in vivo assay (Example 4); details: for CBGA / FCBGA / CBGA/FCB: 2 mM olivetolic acid, 48 h quench; for CBGA / FCBGA: 2% glucose, strain sCL-SE-0128; for CBGA/FCB: product ratio
Description: (§1) As described below, plasmids pCL-SE-0380 (MPT4), pCL-SE-0337.MPT4, pCL-SE-0338.APT73.74, and pCL-SE-0338.APT73.77 were transformed into strain sCL-SE-0128. Multiple colonies per transformation were precultured for 48 h in YNB containing glucose (2%), casamino acids (0.5%), and MES (100 mM pH 6.5). Pre-culture was used to inoculate assay medium comprised of YNB containing glucose (2%), casamino acids (0.5%), MES (100 mM pH 6.5), and olivetolic acid or divarinic acid (2 mM). Cultures were quenched with equal volume of ethanol after 48 h total growth and assayed for CBG(V)A and FCBG(V)A. Averages and standard deviations were calculated from replicates.
(§2) Overnight YPD (10 g/L yeast extract, 20 g/L peptone, 2% dextrose) cultures were inoculated from glycerol stocks of the appropriate strain and grown at 30° C. with 250 rpm shaking. Once cultures had reached an OD600 of 4-6, cultures were centrifuged at 500×g for 5 min, supernatants were discarded, and cell pellets were resuspended in equal volume of water. Resuspended cells were centrifuged at 500×g for 5 min, supernatants were discarded, and cells were resuspended in a volume (75 μL×OD×Vculture) of transformation cocktail (45% PEG-400, 0.1 M LiAc, 0.1 M DTT, and 25 ug/100 μL SS Salmon Sperm DNA). For each transformation, >1 μg of plasmid DNA was added to 55 μL cells/transformation cocktail and vortexed for 2 s. Transformations were incubated at 39° C. for 1 h with 250 rpm shaking. Transformations were resuspended in 750 μL YPD with 1 M sorbitol and recovered at 30° C. overnight with 250 rpm shaking. The next day, transformations were centrifuged at 500×g for 5 min, supernatants were discarded, and cell pellets were resuspended in 750 YPD. Resuspended transformations were plated on YPD with appropriate selection or YNBD (6.71 g/L yeast nitrogen base+nitrogen, 0.5% casamino acids, 2% dextrose) agar plates and grown at 30° C. for 2 days. Individual colonies were patched onto YPD plates with appropriate selection or YNBD plates and grown at 30° C. overnight. Patches were used to inoculate 0.5 mL YPD with appropriate selection or YNBD precultures in 96 w blocks and grown at 30° C. for 24-48 h with 1000 rpm shaking. For assays, 0.5 mL YPD with appropriate selection or YNBD cultures containing substrate were inoculated with 2 μL from precultures and grown at 30° C. for 2-4 days with 1000 rpm shaking with 2% glucose added every 24 h. Assay cultures were quenched by addition of 0.5 mL ethanol with 0.2% formic acid and 0.5 mg/mL pentyl-benzoic acid. Precipitates were pelleted by centrifuging at 4600×g for 10 min and then 200 μL was transferred to fresh plates, sealed, and analyzed via HPLC.
(§3) All samples were quenched with equal volume of EtOH containing 0.2 mg/mL internal standard (3,5-Diisopropyl-2-hydroxybenzoic acid CAS #2215-21-6) centrifuged, and clarified solutions were analyzed by HPLC-MS
(§4) • Column: 2.1×50 mm COSMOCORE PBr (Nacalai USA, Inc.) • Mobile Phase: A; 0.1% formic acid in water, B; 0.1% formic acid in acetonitrile • Flow: 0.45 mL/min • Temp: % 50 Celsius • Gradient: 20%B at 0 min, 70%B at 2.3 min, 89% B at 4.2 min, 20% B at 4.3 min, 20%B at 6 min

[2] = tested on: divarinic acid; assay: Unfused rMPTs and APTs, CBGVA/FCBGVA formation in vivo assay (Example 4); details: 2 mM divarinic acid, 48 hour quench; for CBGVA / FCBGVA: 2% glucose, strain sCL-SE-0128
Description: as §1, §2, §3, §4

[3] = tested on: olivetolic acid; assay: MPT4.1 with and without GPS1.1 fusion vs MPT4 fusion, in vivo assay (Example 5); details: 3 mM olivetolic acid, 48 h quench
Description: (§5) As described below, plasmids pCL-SE-0337.MPT4.1 and pCL-SE-0753 were transformed into strain sCL-SE-0128. Multiple colonies per transformation were precultured for 24 h in YNB containing glucose (2%), casamino acids (0.5%), and MES (100 mM pH 6.5). Pre-culture was used to inoculate assay medium comprised of YNB containing glucose (6%), casamino acids (0.5%), MES (100 mM pH 6.5), and olivetolic acid (3 mM). Cultures were quenched with equal volume of ethanol after 48 h total growth and assayed for CBGA and FCBGA. Averages and standard deviations were calculated from replicates.
as §2, §3, §4

[4] = tested on: olivetolic acid; assay: Linkers for GPS1.1-MPT4 fusions, in vivo assay (Example 6); details: 1 mM olivetolic acid, 72 h quench
Description: As described in detail below, plasmids pCL-SE-0380 (MPT4), pCL-SE-0406, pCL-SE-0435, and pCL-SE-0437 were transformed into strain sCL-SE-0128. Four separate colonies per transformation were precultured for 24 h in YNB containing glycerol (2%), casamino acids (0.5%), and MES (100 mM pH 6.5). Pre-culture was used to inoculate assay medium comprised of YNB containing glycerol (2%), casamino acids (0.5%), MES (100 mM pH 6.5), and olivetolic acid (1 mM). Cultures were quenched after 72 h total growth by mixing with equal volume of EtOH. Enzymes produced CBGA and FCBGA. Averages and standard deviations were calculated from replicates.
However, sCL-SE-0128 expresses HMGR and GPS1.1 to increase intracellular GPP levels for prenylation of OA to CBGA. The plasmids that were transformed contain either a gene expressing a prenyl-transferase (pCL-SE-0380 (MPT4)) or a gene expressing a fusion between GPS1.1 and a prenyl-transferase with different linker sequences.
as §2, §3, §4

[5] = tested on: olivetolic acid; assay: MPT fusions with GPS1.1 vs unfused MPTs, OA feed (Example 8, Table 9); details: 2 mM olivetolic acid, 48 h quench
Description: as §5, with “pCL-SE-0406, pCL-SE-0664, pCL-SE-0663, pCL-SE-0662, pCL-SE-0380 (MPT4), pCL-SE-0337.MPT21, pCL-SE-0337.MPT26,” for “pCL-SE-0337.MPT4.1”, “pCL-SE-0337.MPT31” for “pCL-SE-0753”, “48” for “24”, “(2%),” for “(6%),”, “(2” for “(3”
as §2, §3, §4

[6] = tested on: divarinic acid; assay: MPT fusions with GPS1.1 vs unfused MPTs, DVA feed (Example 9, Table 11); details: 2 mM divarinic acid, 2% glucose, quenched after 48 h; strain sCL-SE-0128
Description: as §1, with “plasmids pCL-SE-0406, pCL-SE-0664, pCL-SE-0663, pCL-SE-0662,” for “plasmids”, “pCL-SE-0337.MPT21,” for “pCL-SE-0337.MPT4, pCL-SE-0338.APT73.74, and pCL-SE-0338.APT73.77”, “and” for “and olivetolic acid or”, “quenched” for “quenched with equal volume of ethanol”, “CBGVA” for “CBG(V)A”, “FCBGVA.” for “FCBG(V)A.”
as §2, §3, §4

[7] = tested on: olivetolic acid; assay: GPS-APT fusions, OA feed in vivo assay (Example 11)
Description: as §5, with “pCL-SE-0406, pCL-SE-0664, pCL-SE-0663, pCL-SE-0662, pCL-SE-0380 (MPT4), pCL-SE-0337.MPT21, pCL-SE-0337.MPT26,” for “pCL-SE-0337.MPT4.1”, “pCL-SE-0337.MPT31” for “pCL-SE-0753”, “48” for “24”, “(2%),” for “(6%),”, “(2” for “(3”
Soluble prenyl transferase APT73.77 was fused with GPS1.1 at the N- or C-terminus with different linkers creating the plasmids shown in Table 14. These fusion proteins were expressed and screened as described in Example 8 (olivetolic acid feed)
as §2, §3, §4

[8] = 2% glycerol, strain sCL-SE-0128
[9] = in words, between APT73 mutants
[10] = olivetolic acid feed as in Example 8, 48 h quench, strain sCL-SE-0128

Row | Molecule | CBGA [1] [µM] | FCBGA [1] [µM] | CBGA/FCB [1] | CBGVA [2] [µM] | FCBGVA [2] [µM] | other results
1 | MPT4.1 (protein, MPT4.1 (point mutant, membrane-bound prenyltransferase)) MSDNSIATKILNFGHTCWKLQRPYAVKGMISIACGLFGRELFNNRHLFSWGLMWKAFFALVPILSFNFFAAIMNQIYDVDIDRINKPDLPLVSGEMSIETAWILSIIVALTGLIVTIKLKSAPLFVFIYIFGIFAGFAYSVPPIRWKQYPFTNFLITISSHVGLAFTSYSATTSALGLPFVWRPAFSFIIAFMTVMGMTIAFAKDISDIEGDAKYGVSTVATKLGARNMTFVVSGVLLLNYLVSISIGIIWPQVFKSNIMILSHAILAFCLIFQTRELALANYASAPSRQFFEFIWLLYYAEYFVYVFI | 168 ± 33 | 11 ± 2 | 14.6 | 28 ± 8 | 0 ± 0 | FCBGA byproduct compared to MPT4 ([1]; in words, OA feed, 48 h): less FCBGA byproduct; activity towards CBGA formation compared to MPT4 ([1]; in words, OA feed, 48 h): increased activity towards CBGA formation; CBGA ([3]; 6% glucose, strain sCL-SE-0128): 253 ± 18 µM; FCBGA ([3]; 6% glucose, strain sCL-SE-0128): 26 ± 2 µM; CBGA/FCBGA ([3]; product ratio): 9.7
2 | MPT4: membrane-bound prenyltransferase, SEQ ID NO: 2, comparator (protein, MPT4 (membrane-bound prenyltransferase)) MSDNSIATKILNFGHTCWKLQRPYVVKGMISIACGLFGRELFNNRHLFSWGLMWKAFFALVPILSFNFFAAIMNQIYDVDIDRINKPDLPLVSGEMSIETAWILSIIVALTGLIVTIKLKSAPLFVFIYIFGIFAGFAYSVPPIRWKQYPFTNFLITISSHVGLAFTSYSATTSALGLPFVWRPAFSFIIAFMTVMGMTIAFAKDISDIEGDAKYGVSTVATKLGARNMTFVVSGVLLLNYLVSISIGIIWPQVFKSNIMILSHAILAFCLIFQTRELALANYASAPSRQFFEFIWLLYYAEYFVYVFI | 123 ± 13 | 23 ± 2 | 5.3 | 19 ± 2 | 0 ± 0 | CBGA [4, 8]: 230 ± 15 µM; FCBGA [4, 8]: 51 ± 1 µM; CBGA/FCBGA ([4]; product ratio): 4.5; CBGA ([5]; 2% glucose, strain sCL-SE-0128): 123 ± 13 µM; FCBGA ([5]; 2% glucose, strain sCL-SE-0128): 23 ± 2 µM; CBGA/FCBGA ([5]; product ratio): 5.3; CBGVA [6]: 19 ± 2 µM; FCBGVA [6]: 0 ± 0 µM
3 | APT73.74: recombinant soluble aromatic prenyltransferase, SEQ ID NO: 37 (protein, APT73.74 (mutant soluble aromatic prenyltransferase)) MDEVYAAVEQTSRLLDVPCSPDRFEPVWKAFGDQLPDSHLVFSMAAGEAHRGELDFDFSLRPEGADPYTTALEHGFIEPTDHPVGSVLAEVGKRFAIASYGVEYGVVGGFKKSYAFFPLDDFPPLAQFAEVPSVPPCLAGHVETLTRLGFDDKVSIIGVNYRKNTLNVYLAASAVDTGDKLALLRAFGYPEPDARVRQFIERSFRLYPTFNWDSSAAERICFAVHTQQPGELPAPHDEPTEAFARQVPHVYEGGREFVSGVALAPSGASYYKLAALYQKARRCLH | 123 ± 5 | 18 ± 1 | 6.7 | 10 ± 0 | 0 ± 0 | selectivity (CBGA/FCBGA) [1, 9]: better selectivity
4 | APT73.77: recombinant soluble aromatic prenyltransferase, SEQ ID NO: 38 (protein, APT73.77 (mutant soluble aromatic prenyltransferase)) MDEVYAAVEQTSRLLDVPCSPDRFEPVWKAFGDQLPDSHLVFSMAAGEAHRGELDFDFSLRPEGADPYTTALEHGFIEPTDHPVGSVLAEVGKRFAIASYGVEYGVVGGFKKSYAFFPLDDFPPLAQFAEVPSVPPCLAGHVETLTRLGFDDKVSIIGVNYRKNTLNVYLAASAVDTGDKLALLRAFGYPEPDARVRQFIERSFRLYPTFNWDSSAAERICFAVHTQQPGELPAPHDEPTEAFARQVPHVYEGGREFVSGVALAPSGASYYKLAALYQKARRCLD | 145 ± 13 | 55 ± 3 | 2.6 | 10 ± 1 | 1 ± 1 | overall activity (CBGA+FCBGA) [1, 9]: better overall activity; CBGVA/FCBGVA ([2]; product ratio): 12.5; CBGA [7, 10]: 215 ± 11 µM; FCBGA [7, 10]: 32 ± 1 µM; CBGA/FCBG ([7]; olivetolic acid feed, 48 h quench, product ratio): 6.8
